3 molecules from patent publication US9090686B2, “Antibodies for the treatment of HIV” (Pierre Fabre Medicament, priority 2009, dated 2015) can be followed below.

Bounds are passed on as bounds.

For assay [1], the system named is HIV-1 X4 primary isolate 92UG024. Description: Single cycle neutralization assay in human PBMC, isolate 92UG024. It counts as cell-based. Also noted: 92UG024 % inhibition of infected cells 90 / 92UG024 % inhibition of infected cells 80: unit not given here. The conditions noted are these: for 92UG024 % inhibition of infected cells 90: IC for 90% inhibition. As for the experimental part:
This assay is performed in 36 h using primary isolates KON, MN and 92UG024 concentrated and diluted accordingly to allow the detection 2% infected CD4 T lymphocytes after 2 days of infection.
(§1) Twenty-five microliters of various dilutions of Mabs 515H7, c515H7 and 301aE5 were incubated for 1 h at 37° C. with 25 μl of virus. Human PBMC (25 μl) at 20×10^6 cells/ml were added to the Mab/virus mixture in a 96-well plate (U-bottom, Costar 3599) and cultured for 36 h in RPMI 1640 10% FCS and 20 U/ml IL-2 (R&D Systems, Minneapolis, Minn.).
(§2) After 2 days of culture, HIV-infected lymphocytes were detected by intracellular staining of viral p24 Ag. Cells were fixed and permeabilized using both Cytofix/Cytoperm and Perm/Wash kits (BD Biosciences) according to the manufacturer and stained with a fluorescent anti-p24 Mab (FITC- or PE-anti-p24, clone KC57; Beckman Coulter/Immunotech, Hialeah, Fla.) used at a 1/160 dilution in Perm/Wash solution added for 15 min at 4° C. After washing in PBS with 3% FBS, PBMC were diluted in 300 μl of PBS before flow cytometry analysis (LSRII; BD Biosciences) with DIVA software (BD Biosciences). The percentage of p24-positive cells in the different samples was determined by gating 20,000 events on a living cell population identified by forward- and side-scatter parameters. The living cell subsets were analyzed with the live/dead solution kit (Invitrogen). The p24 Ag-positive value was obtained after subtraction of background events in mock-infected cells.
The percent of neutralization was defined as the reduction of p24-positive cells compared with control infected wells with no Mab. […]

In assay [2] the test system is HIV-1 primary isolate 89.6 (dual X4/R5 virus). Description: Single cycle neutralization assay in human PBMC, isolate 89.6. Type of assay: cell-based. As for the experimental part:
This assay is performed in 36 h using primary isolate 89.6 concentrated and diluted accordingly to allow the detection 2% infected CD4 T lymphocytes after 2 days of infection.
as §1
as §2, with “FL)” for “Fla.)”
The percent of neutralization was defined as the reduction of p24-positive cells compared with control infected wells with no Mab. The neutralizing titer was defined as the concentration of antibody (interpolated between successive dilutions performed in triplicate) that allows a 90% decrease in the percentage of infected cells.

Another assay addresses human CXCR4 (Homo sapiens, UniProt P61073). The assay is described as follows: FACS binding to NIH3T3-hCXCR4 transfected cells. Further details: expressed in transfected cells; host or cells: NIH3T3 (mouse fibroblasts). The conditions noted are these: for binding to human CXCR4-NIH3T3 transfected cell line (in words): FACS; for NIH3T3-CXCR4 (MFI): Mab 10 μg/ml, Mean Fluorescence Intensity by FACS. Here is the method: In this experiment, the specific binding to human CXCR4 (hCXCR4) of anti-CXCR4 Mabs 515H7 and 301aE5 was examined by FACS analysis.
NIH3T3 and NIH3T3-hCXCR4 transfected cells were incubated with 10 μg/ml of monoclonal antibodies 515H7 and 301aE5. The cells were then washed with 1% BSA/PBS/0.01% NaN3. Next, Alexa-labeled secondary antibodies were added to the cells and were allowed to incubate at 4° C. for 20 min. The cells were then washed again two times. Following the second wash, FACS analysis was performed.
NIH3T3-hCXCR4 transfected cells were incubated with a dose range of monoclonal antibody c515H7 from 0 μg/ml to 10 μg/ml. The cells were then washed with 1%BSA/PBS/0.01% NaN3. Next, Alexa-labeled secondary antibodies were added to the cells and were allowed to incubate at 4° C. for 20 min. The cells were then washed again two times. Following the second wash, FACS analysis was performed.
NIH3T3, NIH3T3-hCXCR4 transfected were incubated with 0 to 10 μg/mL of humanized Mabs 515H7 (hz515H7 VH1 D76N VL2, hz515H7 VH1 D76N VL2.1, hz515H7 VH1 D76N VL2.2, hz515H7 VH1 D76N VL2.3) for 20 min at 4° C. in the dark in 100 μl Facs buffer. After 3 washing in Facs buffer, cells were incubated with the secondary antibody, a goat anti-human Alexa 488 (dilution 1/500), for 20 minutes at 4° C. in the dark. After 3 washing in Facs buffer, propidium iodide was added in each well and only viable cells were analyzed by Facs. At least 5000 viable cells were assessed to evaluate the mean value of fluorescence intensity for each condition.
Background: A flow cytometer gives signals particle by particle.

human CXCR4, sequence (P61073 whole entry): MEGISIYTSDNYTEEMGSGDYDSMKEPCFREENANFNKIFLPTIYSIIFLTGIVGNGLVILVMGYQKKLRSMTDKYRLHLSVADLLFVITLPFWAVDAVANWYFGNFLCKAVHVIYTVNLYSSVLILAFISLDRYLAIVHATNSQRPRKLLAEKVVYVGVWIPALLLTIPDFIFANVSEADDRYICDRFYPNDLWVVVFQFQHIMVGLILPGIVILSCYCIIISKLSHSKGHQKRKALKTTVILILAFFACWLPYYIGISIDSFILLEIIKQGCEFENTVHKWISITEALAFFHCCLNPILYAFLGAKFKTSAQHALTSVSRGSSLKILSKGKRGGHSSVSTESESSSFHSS

B1: 515H7: murine anti-CXCR4 monoclonal antibody; light chain variable domain SEQ ID No. 7, heavy chain variable domain SEQ ID No. 8 (antibody, listed as Mus musculus, V domains shown)
VH: EVNLVESGGGLVQPGGSLRLSCATSGFTFTDNYMSWVRQPPGKALEWLGFIRNKANGYTTDYSASVRGRFTISRDNSQSILYLQMNALRAEDSATYYCARDVGSNYFDYWGQGTTLTVSS
VL: DIVMSQSPSSLAVSAGEKVTMSCKSSQSLFNSRTRKNYLAWYQQKPGQSPKLLIYWASARDSGVPARFTGSGSETYFTLTISRVQAEDLAVYYCMQSFNLRTFGGGTKLEIK
On to B1, for which the “inhibition of HIV-1 X4 92UG024 primary isolate replication in PBMC (in words)” value in assay [1] is given as “able to inhibit”. The “92UG024 % inhibition of infected cells 90” value in assay [1] (human PBMC) came to 10. For the same molecule, in assay [2], the “inhibition of HIV-1 89.6 primary isolate replication in PBMC (in words)” value is “able to inhibit”. Moreover, in the assay with human CXCR4, the “binding to human CXCR4-NIH3T3 transfected cell line (in words)” value (“binding” for short) was “bind specifically” and the “NIH3T3-CXCR4 (MFI)” value is reported as 2752.

B2: c515H7: chimeric antibody 515H7: murine variable domains fused to human Ckappa and IgG1/IgG2/IgG4 constant domains; isotype tested not stated (antibody, V domains shown)
VH: EVNLVESGGGLVQPGGSLRLSCATSGFTFTDNYMSWVRQPPGKALEWLGFIRNKANGYTTDYSASVRGRFTISRDNSQSILYLQMNALRAEDSATYYCARDVGSNYFDYWGQGTTLTVSS
VL: DIVMSQSPSSLAVSAGEKVTMSCKSSQSLFNSRTRKNYLAWYQQKPGQSPKLLIYWASARDSGVPARFTGSGSETYFTLTISRVQAEDLAVYYCMQSFNLRTFGGGTKLEIK
Take B2: in assay [1], the “inhibition of HIV-1 X4 92UG024 primary isolate replication in PBMC (in words)” value is listed as “able to inhibit”. In addition, the “92UG024 % inhibition of infected cells 90” value in assay [1] (human PBMC) is reported as 15. Further, the “inhibition of HIV-1 89.6 primary isolate replication in PBMC (in words)” value in assay [2] is reported as “able to inhibit”. In addition, the “binding” value in the assay with human CXCR4 was “bound specifically”.

B3: 301aE5: murine anti-CXCR4 monoclonal antibody; light chain variable domain SEQ ID No. 34, heavy chain variable domain SEQ ID No. 35 (antibody, listed as Mus musculus, V domains shown)
VH: QVQLKESGPGLVAPSQSLSITCTVSGFSLTDYGVYWVRQPPGKGLEWLGMIWGDGTTDYNSALKSRLSISKDNSKSQVFLKMNTLQTDDTARYYCARGRQFGFDYWGQGTTLTVSS
VL: DIVMSQSPSSLAVSAGEKVTMRCKSSQSLFNSRTRKNYLAWYQQKPGQSPKLLIFWASIRESGVPDRFTGSGSGTDFTLTISSVQAEDLAVYYCKQSYNLRTFGGGTKLEIK
B3: the “inhibition of HIV-1 X4 92UG024 primary isolate replication in PBMC (in words)” value in assay [1] is recorded as “able to inhibit”. The “92UG024 % inhibition of infected cells 80” value in assay [1] (IC for 80% inhibition, human PBMC) was 150. Further, the “92UG024 % inhibition of infected cells 90” value in assay [1] (human PBMC) is more than 150. The “inhibition of HIV-1 89.6 primary isolate replication in PBMC (in words)” value in assay [2] was “able to inhibit”. In the assay with human CXCR4, the “binding” value is “bind specifically” and the “NIH3T3-CXCR4 (MFI)” value stood at 1367.
